Among the data in US12195506B2, “Immunotherapy with A*01 restricted peptides and combination of peptides against cancers and related methods” (Immatics Biotechnologies GmbH, priority 2018, dated 2025) are Peptide exchange values, retold here.

The assay concerns the target HLA-A*01:01 (Homo sapiens, UniProt P04439, A114D/A174V/A182V/D101N/D185E/E176A/E190D/L180R/Q94H/R68K/S129P/T187R/V100A/V91M/W191G). As to the kind of experiment: MHC binding assay: UV-ligand exchange, ELISA of stabilized MHC complexes (peptide exchange yield). To be noted: binding to HLA-A*01:01, UV-ligand exchange. The text has this: Candidate peptides for T cell based therapies according to the present invention were further tested for their MHC binding capacity (affinity). The individual peptide-MHC complexes were produced by UV-ligand exchange, where a UV-sensitive peptide is cleaved upon UV-irradiation and exchanged with the peptide of interest as analyzed. Only peptide candidates that can effectively bind and stabilize the peptide-receptive MHC molecules prevent dissociation of the MHC complexes. To determine the yield of the exchange reaction, an ELISA was performed based on the detection of the light chain (β2m) of stabilized MHC complexes. The assay was performed as generally described in Rodenko et al. (Rodenko et al., 2006)
96 well MAXISorp plates (NUNC) were coated over night with 2 ug/ml streptavidin in PBS at room temperature, washed 4× and blocked for 1 h at 37° C. in 2% BSA containing blocking buffer. Refolded HLA-A*02:01/MLA-001 monomers served as standards, covering the range of 15-500 ng/ml. Peptide-MHC monomers of the UV-exchange reaction were diluted 100-fold in blocking buffer. Samples were incubated for 1 h at 37° C., washed four times, incubated with 2 ug/ml HRP conjugated anti-β2m for 1 h at 37° C., washed again and detected with TMB solution that is stopped with […]. Absorption was measured at 450 nm.
(An ELISA detects its analyte on a solid surface through an enzyme-linked reagent.)
With “99 (AADSNPSEL; listed as Homo sapiens) [compound 99]”, the Peptide exchange result is “++ (>20% = ++)”.
Take “100 (TTSSAISWILY; listed as Homo sapiens) [compound 100]”: the Peptide exchange result was “+++ (>50 = +++)”.
For “101 (SITDVDFIY; listed as Homo sapiens) [compound 101]”, the Peptide exchange entry is “++ (>20% = ++)”.
With “102 (STIRGELFF; listed as Homo sapiens) [compound 102]” the entry was “++ (>20% = ++)”; with “103 (ITDTLIHLM; listed as Homo sapiens) [compound 103]”, “+++ (>50 = +++)”.
“104 (ITDTLIHL; listed as Homo sapiens) [compound 104]”: the Peptide exchange result is “++ (>20% = ++)”.
For “105 (VVFDKSDLAKY; listed as Homo sapiens) [compound 105]” the value was “++ (>20% = ++)”; for “106 (EVVEGKEWGSFY; listed as Homo sapiens) [compound 106]”, “+++ (>50 = +++)”; for “107 (TTENSGNYY; listed as Homo sapiens) [compound 107]”, “++++ (>75% = ++++)”.
For “108 (NSNLKFLEV; listed as Homo sapiens) [compound 108]” the value was “++ (>20% = ++)”; for “109 (ISEDKSISF; listed as Homo sapiens) [compound 109]”, “++ (>20% = ++)”.
Regarding “110 (IGDKVDAVY; listed as Homo sapiens) [compound 110]”, the Peptide exchange result is “++ (>20% = ++)”.
On to “111 (TPIPFDKILY; listed as Homo sapiens) [compound 111]”, for which the Peptide exchange entry is recorded as “++ (>20% = ++)”.
For the substance “112 (KASSVSAEDGY; listed as Homo sapiens) [compound 112]”, the Peptide exchange entry is reported as “++ (>20% = ++)”.
Take “113 (ASCRSSAEY; listed as Homo sapiens) [compound 113]”: the Peptide exchange entry is given as “++++ (>75% = ++++)”.
On to “114 (AVAAAAGASLY; listed as Homo sapiens) [compound 114]”, for which the Peptide exchange entry is “++ (>20% = ++)”.
In the case of “115 (NEIDIHSIYFY; listed as Homo sapiens) [compound 115]”, the Peptide exchange entry is on record as “++ (>20% = ++)”.
In the case of “116 (RSDIGEFEW; listed as Homo sapiens) [compound 116]”, the Peptide exchange entry is given as “++ (>20% = ++)”.
In the case of “117 (SPAKQFNIY; listed as Homo sapiens) [compound 117]”, the Peptide exchange result is reported as “+++ (>50 = +++)”.
For “118 (LTWAHSAKY; listed as Homo sapiens) [compound 118]” the value was “+++ (>50 = +++)”; for “119 (TVFDENLSRY; listed as Homo sapiens) [compound 119]”, “++ (>20% = ++)”.
As for “121 (SADEAHGLL; listed as Homo sapiens) [compound 121]”, the Peptide exchange entry is reported as “++ (>20% = ++)”.
With “122 (ISEAPLTEV; listed as Homo sapiens) [compound 122]” the entry was “++ (>20% = ++)”; with “123 (LLKAKDILY; listed as Homo sapiens) [compound 123]”, “++ (>20% = ++)”.
For the substance “124 (FLKVTGYDKDDY; listed as Homo sapiens) [compound 124]”, the Peptide exchange entry was “++ (>20% = ++)”.
Take “125 (FQYELRELY; listed as Homo sapiens) [compound 125]”: the Peptide exchange entry was “++++ (>75% = ++++)”.
Take “126 (TTDPKKFQY; listed as Homo sapiens) [compound 126]”: the Peptide exchange result is given as “++++ (>75% = ++++)”.
Take “127 (VPFNLITEY; listed as Homo sapiens) [compound 127]”: the Peptide exchange entry is reported as “+ (>10% =+)”.
For “128 (YTEFVDATFTK; listed as Homo sapiens) [compound 128]” the value was “++++ (>75% = ++++)”; for “129 (STIDFRAGF; listed as Homo sapiens) [compound 129]”, “++ (>20% = ++)”.
Take “130 (YIGLKGLYF; listed as Homo sapiens) [compound 130]”: the Peptide exchange entry was “++ (>20% = ++)”.
As for “131 (LEDGIEQSAY; listed as Homo sapiens) [compound 131]”, the Peptide exchange result is on record as “++ (>20% = ++)”.
As to “132 (RTHIGYKVY; listed as Homo sapiens) [compound 132]”, the Peptide exchange entry is recorded as “+++ (>50 = +++)”.
On to “133 (ITDVGPGNY; listed as Homo sapiens) [compound 133]”, for which the Peptide exchange entry is recorded as “+++ (>50 = +++)”.
With “134 (SAPSSSGSPLY; listed as Homo sapiens) [compound 134]”, the Peptide exchange result is on record as “++ (>20% = ++)”.
Turning to “135 (TFDKQIVLL; listed as Homo sapiens) [compound 135]”, the Peptide exchange entry is recorded as “++ (>20% = ++)”.
Consider “136 (RRLNFSGFGY; listed as Homo sapiens) [compound 136]”, for which the Peptide exchange result was “+++ (>50 = +++)”.
As for “137 (EAYLERIGY; listed as Homo sapiens) [compound 137]”, the Peptide exchange result is “+++ (>50 = +++)”.
For the substance “138 (IPVHDSVGVTY; listed as Homo sapiens) [compound 138]”, the Peptide exchange entry was “+++ (>50 = +++)”.
On to “139 (PVHDSVGVTY; listed as Homo sapiens) [compound 139]”, for which the Peptide exchange result is given as “++ (>20% = ++)”.
Consider “140 (SQHIFTVSY; listed as Homo sapiens) [compound 140]”, for which the Peptide exchange entry is listed as “++ (>20% = ++)”.
With “141 (DAVAPGREY; listed as Homo sapiens) [compound 141]” the entry was “++ (>20% = ++)”.
Consider “142 (IEKFAVLY; listed as Homo sapiens) [compound 142]”, for which the Peptide exchange result is recorded as “+++ (>50 = +++)”.
Take “143 (HVSGQMLYF; listed as Homo sapiens) [compound 143]”: the Peptide exchange entry is “++ (>20% = ++)”.
For “144 (RTIEGDFLW; listed as Homo sapiens) [compound 144]”, the Peptide exchange result is “++ (>20% = ++)”.
Consider “145 (LSDAVHVEF; listed as Homo sapiens) [compound 145]”, for which the Peptide exchange entry was “+++ (>50 = +++)”.
With “146 (LCATVCGTEQY; listed as Homo sapiens) [compound 146]”, the Peptide exchange result is recorded as “++ (>20% = ++)”.
For the substance “147 (AQVQDTGRY; listed as Homo sapiens) [compound 147]”, the Peptide exchange entry is listed as “+++ (>50 = +++)”.
Consider “148 (GTKQWVHARY; listed as Homo sapiens) [compound 148]”, for which the Peptide exchange result is “+ (>10% =+)”.
On to “149 (PIMSSSQALY; listed as Homo sapiens) [compound 149]”, for which the Peptide exchange entry is reported as “++ (>20% = ++)”.
Turning to “150 (FTTLSDLQTNMA; listed as Homo sapiens) [compound 150]”, the Peptide exchange entry was “++ (>20% = ++)”.
Regarding “151 (YEVDTKLLSL; listed as Homo sapiens) [compound 151]”, the Peptide exchange entry is listed as “++ (>20% = ++)”.
Regarding “152 (YLEDRPLSQ; listed as Homo sapiens) [compound 152]”, the Peptide exchange entry was “++ (>20% = ++)”.
As to “153 (HSIEVFTHY; listed as Homo sapiens) [compound 153]”, the Peptide exchange entry is “++ (>20% = ++)”.
Regarding “154 (SIEVFTHY; listed as Homo sapiens) [compound 154]”, the Peptide exchange entry was “+++ (>50 = +++)”.
With “155 (HTMEVTVY; listed as Homo sapiens) [compound 155]” the entry was “+++ (>50 = +++)”; with “156 (STALSILLL; listed as Homo sapiens) [compound 156]”, “++ (>20% = ++)”; with “157 (GLIEVVTGY; listed as Homo sapiens) [compound 157]”, “++++ (>75% = ++++)”.
In the case of “158 (EVTDRNMLAF; listed as Homo sapiens) [compound 158]”, the Peptide exchange entry is on record as “+++ (>50 = +++)”.
For the substance “159 (RQAPGPARDY; listed as Homo sapiens) [compound 159]”, the Peptide exchange result is listed as “++ (>20% = ++)”.
For “160 (EVLGEEMYAY; listed as Homo sapiens) [compound 160]” the value was “++ (>20% = ++)”.
For “161 (EAAPDIMHY; listed as Homo sapiens) [compound 161]” the value was “++ (>20% = ++)”.
Take “162 (IADNPQLSFY; listed as Homo sapiens) [compound 162]”: the Peptide exchange result is on record as “++++ (>75% = ++++)”.
On to “163 (KIRAEVLSHY; listed as Homo sapiens) [compound 163]”, for which the Peptide exchange result is “++ (>20% = ++)”.
As for “164 (KLAGTVFQY; listed as Homo sapiens) [compound 164]”, the Peptide exchange entry was “++ (>20% = ++)”.
Consider “165 (VSVYNSYPY; listed as Homo sapiens) [compound 165]”, for which the Peptide exchange result is given as “++ (>20% = ++)”.
For the substance “166 (YHRICELLSDY; listed as Homo sapiens) [compound 166]”, the Peptide exchange entry is “++++ (>75% = ++++)”.
